Data on 2 molecules can be found in US20240277871A1 (University of Pennsylvania, published 2024).

Residue numbers refer to the chain shown, from its start. Names may count otherwise.

This assay concerns the target T1, mac251 gp120 (Immune Technology Corp.) (SIV mac251, UniProt P08810 20-527).
T1 construct: Coated on ELISA plates at 2 ug/mL; also called SIV mac251 gp120
T1 sequence: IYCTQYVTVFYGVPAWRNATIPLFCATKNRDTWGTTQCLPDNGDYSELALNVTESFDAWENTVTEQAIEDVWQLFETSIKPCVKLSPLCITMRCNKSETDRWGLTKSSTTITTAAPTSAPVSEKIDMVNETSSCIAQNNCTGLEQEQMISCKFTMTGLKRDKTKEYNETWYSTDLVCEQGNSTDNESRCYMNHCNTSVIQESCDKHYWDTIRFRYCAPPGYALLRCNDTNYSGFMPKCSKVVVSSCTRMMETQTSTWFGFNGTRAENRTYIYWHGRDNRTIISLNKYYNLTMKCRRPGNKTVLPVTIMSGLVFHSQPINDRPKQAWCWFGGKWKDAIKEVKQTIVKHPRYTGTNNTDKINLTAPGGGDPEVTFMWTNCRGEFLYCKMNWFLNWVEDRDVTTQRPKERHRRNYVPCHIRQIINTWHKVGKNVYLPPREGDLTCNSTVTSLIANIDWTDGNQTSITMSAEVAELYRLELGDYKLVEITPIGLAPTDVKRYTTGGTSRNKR
Nature of the assay: ELISA, mac251 gp120 coated at 2 ug/mL, immunoadhesin at 50 ng/mL, detected with anti-human IgG-biotin and streptavidin-HRP.

B1: rhesus macaque anti-SIV mac251 gp120 IgG-201 immunoadhesin (201IA) (Fc fusion)
chain: EVQLLESGPGLVKPSETLSLTCAVSGLSISSDFSWAWIRQTPGKALEYVGYIRGNTGDTYYNPSLKSRLTISKDTSKNQIYLNLSSVTAGDAAVYYCARDRVCDDDYGYYYTEVCFGLDSWGQGIVVTVSSGGGGSGGGGSGGGGSAELVMTQSPLSLSVAPGQTASISCRSSQSLDYANGNTYLSWFHQRPGQPPRRLIYQISNRDSGVPDRFSGSGAGTEFTLRISRMESDDVGIYYCGQGTTFPRTFGQGTKVEIKTCGGGSKPPTCPPCTSPELLGGPSVFLFPPKPKDTLMISRTPEVTCVVVDVSQEDPDVKFNWYVNGAEVHHAQTKPRETQYNSTYRVVSVLTVTHQDWLNGKEYTCKVSNKALPAPIQKTISKDKGQPREPQVYTLPPSREELTKNQVSLTCLVKGFYPSDIVVEWESSGQPENTYKTTPPVLDSDGSYFLYSKLTVDKSRWQQGNVFSCSVMHEALHNHYTQKSLSLSPGK
notes: also called 201 anti-SIV immunoadhesin; 201IA standard protein produced in-house
For the molecule B1, the binding result is “binds”.

B2: 201IA(I253A) (Fc fusion)
chain: B1 chain with I297A
notes: No leader limits are stated; Expressed in HEK293 cells and purified on Protein A; also called I253A 201IA mutant
Regarding B2, the binding result was “binds”.
